B1: RE1 mutant (dsDNA)
DNA 1: TTATCGCTTGAAATACTTGTAT
DNA 2: ATACAAGTATTTCAAGCGATAA
B2: RE2 wild-type (dsDNA)
DNA 1: GTGCATGAAGAGGTATAGTCTCATGCTT
DNA 2: AAGCATGAGACTATACCTCTTCATGCAC
B3: RE1 wild-type (dsDNA)
DNA 1: TTACATGTTGAAATACTTGTAT
DNA 2: ATACAAGTATTTCAACATGTAA
B4: RE2 mutant (dsDNA)
DNA 1: GTGTCGCAAGAGGTATAGTCTCATGCTT
DNA 2: AAGCATGAGACTATACCTCTTGCGACAC

Biological target: p53 (UniProt P04637 1-393)
Experiment: biotinylated DNA pull-down, western blot; 10 mM Tris-HCl pH 8.0, 40 mM KCl, 1 mM DTT, 6% glycerol, 0.05% NP-40; overnight at 4 °C; 20 µg p53, 1 µg biotinylated oligo; beads washed with Tris-EDTA (100 mM NaCl), binding buffer, PBS
Settings: protein: recombinant; chain copies: 4; label: biotin

p53, sequence (P04637 whole entry): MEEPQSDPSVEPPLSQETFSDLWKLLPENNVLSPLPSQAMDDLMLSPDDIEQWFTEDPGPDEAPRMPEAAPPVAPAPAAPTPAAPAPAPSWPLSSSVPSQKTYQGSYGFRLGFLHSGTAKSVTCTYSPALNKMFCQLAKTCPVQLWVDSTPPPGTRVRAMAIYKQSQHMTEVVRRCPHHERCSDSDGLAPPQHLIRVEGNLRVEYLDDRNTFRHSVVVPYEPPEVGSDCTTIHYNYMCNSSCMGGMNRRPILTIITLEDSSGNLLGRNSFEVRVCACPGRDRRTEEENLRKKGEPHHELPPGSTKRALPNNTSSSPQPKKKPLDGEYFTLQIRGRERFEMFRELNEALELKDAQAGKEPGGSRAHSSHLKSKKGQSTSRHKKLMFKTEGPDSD

**Q.** Does B1 bind?
**A.** Result: no binding

**Q.** Does B2 bind?
**A.** Result: binds

**Q.** Does B3 bind?
**A.** Result: binds

**Q.** Does B4 bind?
**A.** Result: no binding
